Experimental data taken from patent publication US20140087995A1 (published 2014).
Numbered stars: 1 amine (or outer) side, 2 acyl side, 3 side chain; on linkers, the order of the positions; unused ones are H or OH. Bridge positions count the residues as written; N and C are the ends. Side chains are listed from the residue outwards. Ends that are not written are not given here. * marks the point of attachment. C20 diacid = O=C(O)CCCCCCCCCCCCCCCCCCC(=O)*; γGlu = O=C(O)[C@H](CCC(=O)[*:2])N[*:1]

T1: human calcitonin receptor (human, UniProt P30988 25-474)
T1 sequence (looked up): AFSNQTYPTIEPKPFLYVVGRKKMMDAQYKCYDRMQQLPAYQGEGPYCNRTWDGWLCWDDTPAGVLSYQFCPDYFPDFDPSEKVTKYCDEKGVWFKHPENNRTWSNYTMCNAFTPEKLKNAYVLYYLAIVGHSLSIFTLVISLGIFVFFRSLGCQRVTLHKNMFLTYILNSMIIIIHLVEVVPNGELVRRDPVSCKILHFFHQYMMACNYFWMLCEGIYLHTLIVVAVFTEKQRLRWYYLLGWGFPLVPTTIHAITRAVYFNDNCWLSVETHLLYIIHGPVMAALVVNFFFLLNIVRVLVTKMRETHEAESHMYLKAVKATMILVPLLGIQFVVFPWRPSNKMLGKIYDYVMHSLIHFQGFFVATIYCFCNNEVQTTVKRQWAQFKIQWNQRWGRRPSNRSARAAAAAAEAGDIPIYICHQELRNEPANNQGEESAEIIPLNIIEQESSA

B1: N^ε1-[(4S)-4-carboxy-4-(19-carboxynonadecanoylamino)butanoyl]-[Arg17,Pro21,Pro27,Glu35]-h-amylin (peptide)
peptide: K([γGlu-C20 diacid])CNTATCATQRLANFLRHSSPNFGAIPSSTNVGSETY-NH2
modifications: disulfide 2-7; N-terminus assumed
SMILES: CC[C@H](C)[C@H](NC(=O)[C@H](C)NC(=O)CNC(=O)[C@H](Cc1ccccc1)NC(=O)[C@H](CC(N)=O)NC(=O)[C@@H]1CCCN1C(=O)[C@H](CO)NC(=O)[C@H](CO)NC(=O)[C@H](Cc1c[nH]cn1)NC(=O)[C@H](CCCNC(=N)N)NC(=O)[C@H](CC(C)C)NC(=O)[C@H](Cc1ccccc1)NC(=O)[C@H](CC(N)=O)NC(=O)[C@H](C)NC(=O)[C@H](CC(C)C)NC(=O)[C@H](CCCNC(=N)N)NC(=O)[C@H](CCC(N)=O)NC(=O)[C@@H](NC(=O)[C@H](C)NC(=O)[C@@H]1CSSC[C@H](NC(=O)[C@@H](N)CCCCNC(=O)CC[C@H](NC(=O)CCCCCCCCCCCCCCCCCCC(=O)O)C(=O)O)C(=O)N[C@@H](CC(N)=O)C(=O)N[C@@H]([C@@H](C)O)C(=O)N[C@@H](C)C(=O)N[C@@H]([C@@H](C)O)C(=O)N1)[C@@H](C)O)C(=O)N1CCC[C@H]1C(=O)N[C@@H](CO)C(=O)N[C@@H](CO)C(=O)N[C@H](C(=O)N[C@@H](CC(N)=O)C(=O)N[C@H](C(=O)NCC(=O)N[C@@H](CO)C(=O)N[C@@H](CCC(=O)O)C(=O)N[C@H](C(=O)N[C@@H](Cc1ccc(O)cc1)C(N)=O)[C@@H](C)O)C(C)C)[C@@H](C)O
notes: analogue of human amylin; also called compound 27
B2: N^ε1-[(4S)-4-carboxy-4-(19-carboxynonadecanoylamino)butanoyl]-[His14,Arg17,Pro21,Pro27,His35]-h-amylin (peptide)
peptide: K([γGlu-C20 diacid])CNTATCATQRLAHFLRHSSPNFGAIPSSTNVGSHTY-NH2
modifications: disulfide 2-7; N-terminus assumed
SMILES: CC[C@H](C)[C@H](NC(=O)[C@H](C)NC(=O)CNC(=O)[C@H](Cc1ccccc1)NC(=O)[C@H](CC(N)=O)NC(=O)[C@@H]1CCCN1C(=O)[C@H](CO)NC(=O)[C@H](CO)NC(=O)[C@H](Cc1c[nH]cn1)NC(=O)[C@H](CCCNC(=N)N)NC(=O)[C@H](CC(C)C)NC(=O)[C@H](Cc1ccccc1)NC(=O)[C@H](Cc1c[nH]cn1)NC(=O)[C@H](C)NC(=O)[C@H](CC(C)C)NC(=O)[C@H](CCCNC(=N)N)NC(=O)[C@H](CCC(N)=O)NC(=O)[C@@H](NC(=O)[C@H](C)NC(=O)[C@@H]1CSSC[C@H](NC(=O)[C@@H](N)CCCCNC(=O)CC[C@H](NC(=O)CCCCCCCCCCCCCCCCCCC(=O)O)C(=O)O)C(=O)N[C@@H](CC(N)=O)C(=O)N[C@@H]([C@@H](C)O)C(=O)N[C@@H](C)C(=O)N[C@@H]([C@@H](C)O)C(=O)N1)[C@@H](C)O)C(=O)N1CCC[C@H]1C(=O)N[C@@H](CO)C(=O)N[C@@H](CO)C(=O)N[C@H](C(=O)N[C@@H](CC(N)=O)C(=O)N[C@H](C(=O)NCC(=O)N[C@@H](CO)C(=O)N[C@@H](Cc1c[nH]cn1)C(=O)N[C@H](C(=O)N[C@@H](Cc1ccc(O)cc1)C(N)=O)[C@@H](C)O)C(C)C)[C@@H](C)O
notes: analogue of human amylin; also called compound 66
B3: N^ε1-[(4S)-4-carboxy-4-(19-carboxynonadecanoylamino)butanoyl]-[Glu14,Arg17,Pro21,Pro27,Arg35]-h-amylin (peptide)
peptide: K([γGlu-C20 diacid])CNTATCATQRLAEFLRHSSPNFGAIPSSTNVGSRTY-NH2
modifications: disulfide 2-7; N-terminus assumed
SMILES: CC[C@H](C)[C@H](NC(=O)[C@H](C)NC(=O)CNC(=O)[C@H](Cc1ccccc1)NC(=O)[C@H](CC(N)=O)NC(=O)[C@@H]1CCCN1C(=O)[C@H](CO)NC(=O)[C@H](CO)NC(=O)[C@H](Cc1c[nH]cn1)NC(=O)[C@H](CCCNC(=N)N)NC(=O)[C@H](CC(C)C)NC(=O)[C@H](Cc1ccccc1)NC(=O)[C@H](CCC(=O)O)NC(=O)[C@H](C)NC(=O)[C@H](CC(C)C)NC(=O)[C@H](CCCNC(=N)N)NC(=O)[C@H](CCC(N)=O)NC(=O)[C@@H](NC(=O)[C@H](C)NC(=O)[C@@H]1CSSC[C@H](NC(=O)[C@@H](N)CCCCNC(=O)CC[C@H](NC(=O)CCCCCCCCCCCCCCCCCCC(=O)O)C(=O)O)C(=O)N[C@@H](CC(N)=O)C(=O)N[C@@H]([C@@H](C)O)C(=O)N[C@@H](C)C(=O)N[C@@H]([C@@H](C)O)C(=O)N1)[C@@H](C)O)C(=O)N1CCC[C@H]1C(=O)N[C@@H](CO)C(=O)N[C@@H](CO)C(=O)N[C@H](C(=O)N[C@@H](CC(N)=O)C(=O)N[C@H](C(=O)NCC(=O)N[C@@H](CO)C(=O)N[C@@H](CCCNC(=N)N)C(=O)N[C@H](C(=O)N[C@@H](Cc1ccc(O)cc1)C(N)=O)[C@@H](C)O)C(C)C)[C@@H](C)O
notes: analogue of human amylin; also called compound 51
B4: N^ε1-[(4S)-4-carboxy-4-(19-carboxynonadecanoylamino)butanoyl]-[Arg17,Pro21,Pro27,His35]-h-amylin (peptide)
peptide: K([γGlu-C20 diacid])CNTATCATQRLANFLRHSSPNFGAIPSSTNVGSHTY-NH2
modifications: disulfide 2-7; N-terminus assumed
SMILES: CC[C@H](C)[C@H](NC(=O)[C@H](C)NC(=O)CNC(=O)[C@H](Cc1ccccc1)NC(=O)[C@H](CC(N)=O)NC(=O)[C@@H]1CCCN1C(=O)[C@H](CO)NC(=O)[C@H](CO)NC(=O)[C@H](Cc1c[nH]cn1)NC(=O)[C@H](CCCNC(=N)N)NC(=O)[C@H](CC(C)C)NC(=O)[C@H](Cc1ccccc1)NC(=O)[C@H](CC(N)=O)NC(=O)[C@H](C)NC(=O)[C@H](CC(C)C)NC(=O)[C@H](CCCNC(=N)N)NC(=O)[C@H](CCC(N)=O)NC(=O)[C@@H](NC(=O)[C@H](C)NC(=O)[C@@H]1CSSC[C@H](NC(=O)[C@@H](N)CCCCNC(=O)CC[C@H](NC(=O)CCCCCCCCCCCCCCCCCCC(=O)O)C(=O)O)C(=O)N[C@@H](CC(N)=O)C(=O)N[C@@H]([C@@H](C)O)C(=O)N[C@@H](C)C(=O)N[C@@H]([C@@H](C)O)C(=O)N1)[C@@H](C)O)C(=O)N1CCC[C@H]1C(=O)N[C@@H](CO)C(=O)N[C@@H](CO)C(=O)N[C@H](C(=O)N[C@@H](CC(N)=O)C(=O)N[C@H](C(=O)NCC(=O)N[C@@H](CO)C(=O)N[C@@H](Cc1c[nH]cn1)C(=O)N[C@H](C(=O)N[C@@H](Cc1ccc(O)cc1)C(N)=O)[C@@H](C)O)C(C)C)[C@@H](C)O
notes: analogue of human amylin; also called compound 60
B5: N^ε1-[(4S)-4-carboxy-4-(19-carboxynonadecanoylamino)butanoyl]-[Arg17,Pro21,Pro27,Lys35]-h-amylin (peptide)
peptide: K([γGlu-C20 diacid])CNTATCATQRLANFLRHSSPNFGAIPSSTNVGSKTY-NH2
modifications: disulfide 2-7; N-terminus assumed
SMILES: CC[C@H](C)[C@H](NC(=O)[C@H](C)NC(=O)CNC(=O)[C@H](Cc1ccccc1)NC(=O)[C@H](CC(N)=O)NC(=O)[C@@H]1CCCN1C(=O)[C@H](CO)NC(=O)[C@H](CO)NC(=O)[C@H](Cc1c[nH]cn1)NC(=O)[C@H](CCCNC(=N)N)NC(=O)[C@H](CC(C)C)NC(=O)[C@H](Cc1ccccc1)NC(=O)[C@H](CC(N)=O)NC(=O)[C@H](C)NC(=O)[C@H](CC(C)C)NC(=O)[C@H](CCCNC(=N)N)NC(=O)[C@H](CCC(N)=O)NC(=O)[C@@H](NC(=O)[C@H](C)NC(=O)[C@@H]1CSSC[C@H](NC(=O)[C@@H](N)CCCCNC(=O)CC[C@H](NC(=O)CCCCCCCCCCCCCCCCCCC(=O)O)C(=O)O)C(=O)N[C@@H](CC(N)=O)C(=O)N[C@@H]([C@@H](C)O)C(=O)N[C@@H](C)C(=O)N[C@@H]([C@@H](C)O)C(=O)N1)[C@@H](C)O)C(=O)N1CCC[C@H]1C(=O)N[C@@H](CO)C(=O)N[C@@H](CO)C(=O)N[C@H](C(=O)N[C@@H](CC(N)=O)C(=O)N[C@H](C(=O)NCC(=O)N[C@@H](CO)C(=O)N[C@@H](CCCCN)C(=O)N[C@H](C(=O)N[C@@H](Cc1ccc(O)cc1)C(N)=O)[C@@H](C)O)C(C)C)[C@@H](C)O
notes: analogue of human amylin; also called compound 35

The binders below were run against T1, human calcitonin receptor (assay: cell-based or functional assay).

| hCTR funct. EC50 [nM] | Binder |
| --- | --- |
| 3 | B1 |
| 0.542 | B2 |
| 5.22 | B3 |
| 5.36 | B4 |
| 5.46 | B5 |
